± gives the uncertainty stated by the source.

The data set is described as follows: self-splicing fitness, log relative to wild type (ln ratio); higher = more splicing; Tetrahymena group I intron in knt gene, E. coli kanamycin selection, DiMSum; sequences stand for … in CUCUCU…GGAGGGAAAAGUUAUCAGGCAUGCACCUGGUAGCUAGUCUUUAAACCAAUAGAUUGCAUCGGUUUAAAAGGCAAGACCGUCAAAUUGCGGGAAAGGGGUCAACAGCCGUUCAGUACCAAGUCUCAGGGGAAACUUUGAGAUGGCCUUGCAAAGGGUAUGGUAAUAAGCUGACGGACAUGGUCCUAACCACGCAGCCAAGUCCUAAGUCAACAGAUCUUCUGUUGAUAUGGAUGCAGUUCACAGACUAAAUGUCGGUCGGGGAAGAUGUAUUCUUCUCAUAAGAUAUAGUCGGACCUCUCCUUAAUGGGAGCUAGCGGAUGAAGUGAUGCAACACUGGAGCCGCUGGGAACUAAUUUGUAUGCGAAAGUAUAUUGAUUAGUUUUGGAGUACUCGUGGUCG
An outline of the steps:
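Colonies from six replicate transformations of E. coli BL21(DE3) were pooled and amplicon-sequenced on an Illumina HiSeq 2500. The library placed an intron with all eight P1ex-region nucleotides randomised inside the knt kanamycin-resistance gene on pET-22b(+), and cells grew overnight at 37°C or 30°C on LB agar with or without 25 μg/mL kanamycin (plus 100 μg/mL carbenicillin, 50 μM IPTG, 0.2% rhamnose). Fitness is the DiMSum error-weighted combination of wild-type-normalised replicate fold changes, kanamycin versus none.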

Take CAAGAGCAAUAUUACGCGCU: the “self-splicing fitness (ln)” value (30 °C) was -3.72 ± 0.4 and the “self-splicing fitness (ln)” value (37 °C) is -2.34 ± 0.33.

Turning to CAAGAGCAAUAUUACGCUGA, the “self-splicing fitness (ln)” value is, setting by setting: (30 °C) -2.97 ± 0.19; (37 °C) -2.08 ± 0.21.

Turning to CAAGAGCAAUAUUACGCUGU, the “self-splicing fitness (ln)” value (30 °C) is -3.93 ± 0.36 and the “self-splicing fitness (ln)” value (37 °C) was -2.34 ± 0.24.

CAAGAGCAAUAUUACGCUUC: the “self-splicing fitness (ln)” value (30 °C) is -3.61 ± 0.37 and the “self-splicing fitness (ln)” value (37 °C) is -2.23 ± 0.43.

Turning to CAAGAGCAAUAUUACGGAAC, the “self-splicing fitness (ln)” value reads like this: (30 °C) -3.74 ± 0.17; (37 °C) -2.52 ± 0.19.

With CAAGAGCAAUAUUACGGCAG, the “self-splicing fitness (ln)” value was -1.54 ± 0.091 (30 °C) and -0.926 ± 0.13 (37 °C).

Regarding CAAGAGCAAUAUUACGGCUC, the “self-splicing fitness (ln)” value was -3.78 ± 0.24 (30 °C) and -2.27 ± 0.32 (37 °C).

On to CAAGAGCAAUAUUACGGGAG, for which the “self-splicing fitness (ln)” value (30 °C) was -2.35 ± 0.11 and the “self-splicing fitness (ln)” value (37 °C) was -1.8 ± 0.12.

Regarding CAAGAGCAAUAUUACGGGGC, the “self-splicing fitness (ln)” value (30 °C) was -1.99 ± 0.14 and the “self-splicing fitness (ln)” value (37 °C) is -3.02 ± 0.25.

Take CAAGAGCAAUAUUACGUAGC: the “self-splicing fitness (ln)” value (37 °C) is -1.86 ± 0.43.

With CAAGAGCAAUAUUACGUGAA, the “self-splicing fitness (ln)” value runs as follows: (30 °C) -3.89 ± 0.22; (37 °C) -2.75 ± 0.23.

Turning to CAAGAGCAAUAUUACGUGCC, the “self-splicing fitness (ln)” value was -3.59 ± 0.32 (30 °C) and -3.51 ± 0.39 (37 °C).

Take CAAGAGCAAUAUUACGUGCG: the “self-splicing fitness (ln)” value was -1.17 ± 0.074 (30 °C) and 0.135 ± 0.09 (37 °C).

For CAAGAGCAAUAUUACGUGGC, the “self-splicing fitness (ln)” value is -3.77 ± 0.2 (30 °C) and -3.41 ± 0.28 (37 °C).

For the sequence CAAGAGCAAUAUUACGUGUC, the “self-splicing fitness (ln)” value is, setting by setting: (30 °C) -4.19 ± 0.2; (37 °C) -3.11 ± 0.2.

As to CAAUAGCAAUAUUACGAAAC, the “self-splicing fitness (ln)” value (37 °C) is -1.35 ± 0.24.

CAAUAGCAAUAUUACGAAAG: the “self-splicing fitness (ln)” value by setting is: (30 °C) -1.47 ± 0.082; (37 °C) -0.294 ± 0.13.

For CAAUAGCAAUAUUACGAACC, under “30 °C”, the “self-splicing fitness (ln)” value is -2.22 ± 0.35.

Turning to CAAUAGCAAUAUUACGAACG, the “self-splicing fitness (ln)” value by setting is: (30 °C) -0.128 ± 0.053; (37 °C) 0.24 ± 0.07.

For CAAUAGCAAUAUUACGAACU, the “self-splicing fitness (ln)” value (30 °C) is -3.14 ± 0.27 and the “self-splicing fitness (ln)” value (37 °C) is -1.83 ± 0.18.

Take CAAUAGCAAUAUUACGAAGC: the “self-splicing fitness (ln)” value (30 °C) is -3.01 ± 0.32 and the “self-splicing fitness (ln)” value (37 °C) is -2.73 ± 0.32.

In the case of CAAUAGCAAUAUUACGACAA, the “self-splicing fitness (ln)” value is, setting by setting: (30 °C) -3.42 ± 0.18; (37 °C) -2.07 ± 0.15.

On to CAAUAGCAAUAUUACGAGUG, for which the “self-splicing fitness (ln)” value by setting is: (30 °C) -0.279 ± 0.079; (37 °C) -0.905 ± 0.11.

Regarding CAAUAGCAAUAUUACGAUCU, the “self-splicing fitness (ln)” value runs as follows: (30 °C) -3.45 ± 0.22; (37 °C) -1.91 ± 0.21.

For the sequence CAAUAGCAAUAUUACGAUGA, the “self-splicing fitness (ln)” value is -2.26 ± 0.18 (30 °C) and -1.54 ± 0.23 (37 °C).

With CAAUAGCAAUAUUACGAUGU, the “self-splicing fitness (ln)” value is -3.19 ± 0.14 (30 °C) and -2.32 ± 0.2 (37 °C).

Take CAAUAGCAAUAUUACGCACG: the “self-splicing fitness (ln)” value is, setting by setting: (30 °C) -1.01 ± 0.19; (37 °C) -1.12 ± 0.17.

Consider CAAUAGCAAUAUUACGCAGG, for which the “self-splicing fitness (ln)” value is, setting by setting: (30 °C) -1.75 ± 0.13; (37 °C) -0.433 ± 0.11.

As to CAAUAGCAAUAUUACGCCGG, the “self-splicing fitness (ln)” value (30 °C) is 0.0303 ± 0.12 and the “self-splicing fitness (ln)” value (37 °C) came out at 0.077 ± 0.15.

Take CAAUAGCAAUAUUACGGAAG: the “self-splicing fitness (ln)” value is, setting by setting: (30 °C) -1.36 ± 0.074; (37 °C) -0.459 ± 0.09.

For CAAUAGCAAUAUUACGGACG, the “self-splicing fitness (ln)” value reads like this: (30 °C) -0.294 ± 0.058; (37 °C) 0.146 ± 0.075.

On to CAAUAGCAAUAUUACGGCGU, for which the “self-splicing fitness (ln)” value by setting is: (30 °C) -2.07 ± 0.11; (37 °C) -0.986 ± 0.12.

In the case of CAAUAGCAAUAUUACGGGCG, the “self-splicing fitness (ln)” value amounted to 0.548 ± 0.093 (30 °C) and 0.28 ± 0.11 (37 °C).

With CAAUAGCAAUAUUACGGGGA, the “self-splicing fitness (ln)” value by setting is: (30 °C) -3.12 ± 0.39; (37 °C) -2.61 ± 0.24.

With CAAUAGCAAUAUUACGGGUU, the “self-splicing fitness (ln)” value reads like this: (30 °C) -4.25 ± 0.2; (37 °C) -2.31 ± 0.14.

In the case of CAAUAGCAAUAUUACGUAUG, the “self-splicing fitness (ln)” value by setting is: (30 °C) -1.66 ± 0.12; (37 °C) -1.7 ± 0.12.

In the case of CAAUAGCAAUAUUACGUCCA, the “self-splicing fitness (ln)” value was -2.87 ± 0.29 (30 °C) and -2.25 ± 0.25 (37 °C).

As for CAAUAGCAAUAUUACGUCUC, the “self-splicing fitness (ln)” value is -2.8 ± 0.18 (30 °C) and -3.4 ± 0.33 (37 °C).

These data come from the supplement of paper PMC7877785.
